For one assay, the target named is ACSL3 (human) (UniProt O95573). As to the kind of experiment: anti-FLAG co-IP from lysate of N-FLAG B3GNT2 cells, mass spectrometry.
The target of the next assay is AIFM1 (human) (UniProt O95831). The description is as above.
In the next assay the target is EEF2 (human) (UniProt P13639). Described as above.
Another assay has as its target ERP29 (human) (UniProt P30040). The description is as above.
Another assay has as its target FBXO6 (human) (UniProt Q9NRD1). Described as above.
The target of a further assay is LARP4 (human) (UniProt Q71RC2). The assay is described as above.
The next assay addresses PSMB6 (human) (UniProt P28072). The assay is described as above.
Another assay concerns the target RRBP1 (human) (UniProt Q9P2E9). The description is as above.
The next assay addresses TUBA1C (human) (UniProt Q9BQE3). The assay is described as above.
For another assay, the target named is ATXN2 (human) (UniProt Q99700). Nature of the assay: co-IP, IgG control, lysate of cells with N-FLAG B3GNT2; mass spectrometry.
The target of the next assay is C1orf68 (human) (UniProt Q5T750). The assay is described as above.
Another assay concerns the target DDX5 (human) (UniProt P17844). The assay is described as above.
The target of the next assay is DNAJC3 (human) (UniProt Q13217). The assay is described as above.
The target of the next assay is EIF5B (human) (UniProt O60841). Described as above.
Another assay concerns the target FAU (human) (UniProt P62861). Described as above.
A further assay addresses FUBP3 (human) (UniProt Q96I24). Described as above.
Another assay addresses G3BP1 (human) (UniProt Q13283). The description is as above.
A further assay deals with HNRNPA2B1 (human) (UniProt P22626). The description is as above.
HNRNPA2B1 (human), sequence (P22626 other isoform, or with tags, fused parts or gaps limits assumed): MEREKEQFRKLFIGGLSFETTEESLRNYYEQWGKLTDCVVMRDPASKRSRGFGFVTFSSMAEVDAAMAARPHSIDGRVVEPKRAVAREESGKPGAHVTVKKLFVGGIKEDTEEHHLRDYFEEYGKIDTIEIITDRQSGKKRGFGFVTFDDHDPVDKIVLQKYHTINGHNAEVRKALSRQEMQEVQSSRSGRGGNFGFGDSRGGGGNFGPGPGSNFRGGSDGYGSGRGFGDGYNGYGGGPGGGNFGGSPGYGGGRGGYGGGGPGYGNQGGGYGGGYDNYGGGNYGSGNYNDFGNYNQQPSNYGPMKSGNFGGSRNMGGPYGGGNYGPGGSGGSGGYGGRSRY
A further assay addresses HSPA8 (human) (UniProt P11142). The assay is described as above.
For a further assay, the target named is HUWE1 (human) (UniProt Q7Z6Z7). The assay is described as above.
In the next assay the target is KRT4 (human) (UniProt P19013). Described as above.
KRT4 (human), sequence (P19013 whole entry): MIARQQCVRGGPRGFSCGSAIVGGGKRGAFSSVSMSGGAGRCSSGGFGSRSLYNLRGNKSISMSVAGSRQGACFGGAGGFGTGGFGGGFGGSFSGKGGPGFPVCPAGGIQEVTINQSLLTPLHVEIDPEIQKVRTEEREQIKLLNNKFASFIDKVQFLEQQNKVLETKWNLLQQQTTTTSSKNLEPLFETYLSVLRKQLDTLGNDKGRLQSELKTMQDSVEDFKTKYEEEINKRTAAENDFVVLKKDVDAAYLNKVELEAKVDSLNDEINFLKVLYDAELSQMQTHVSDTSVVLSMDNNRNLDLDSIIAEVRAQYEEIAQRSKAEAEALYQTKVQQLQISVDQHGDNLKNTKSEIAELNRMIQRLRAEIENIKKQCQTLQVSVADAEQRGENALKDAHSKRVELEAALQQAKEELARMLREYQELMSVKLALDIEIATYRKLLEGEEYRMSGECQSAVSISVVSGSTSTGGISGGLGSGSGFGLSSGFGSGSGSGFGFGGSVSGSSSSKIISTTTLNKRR
The next assay concerns the target KRT6B (human) (UniProt P04259). The description is as above.
For another assay, the target named is LMNA (human) (UniProt P02545). The description is as above.
A further assay has as its target NUFIP2 (human) (UniProt Q7Z417). Described as above.
For the next assay, the target named is PARP1 (human) (UniProt P09874). The description is as above.
A further assay deals with PRBP1 (human) (UniProt P26599). The assay is described as above.
PRBP1 (human), sequence (P26599 whole entry): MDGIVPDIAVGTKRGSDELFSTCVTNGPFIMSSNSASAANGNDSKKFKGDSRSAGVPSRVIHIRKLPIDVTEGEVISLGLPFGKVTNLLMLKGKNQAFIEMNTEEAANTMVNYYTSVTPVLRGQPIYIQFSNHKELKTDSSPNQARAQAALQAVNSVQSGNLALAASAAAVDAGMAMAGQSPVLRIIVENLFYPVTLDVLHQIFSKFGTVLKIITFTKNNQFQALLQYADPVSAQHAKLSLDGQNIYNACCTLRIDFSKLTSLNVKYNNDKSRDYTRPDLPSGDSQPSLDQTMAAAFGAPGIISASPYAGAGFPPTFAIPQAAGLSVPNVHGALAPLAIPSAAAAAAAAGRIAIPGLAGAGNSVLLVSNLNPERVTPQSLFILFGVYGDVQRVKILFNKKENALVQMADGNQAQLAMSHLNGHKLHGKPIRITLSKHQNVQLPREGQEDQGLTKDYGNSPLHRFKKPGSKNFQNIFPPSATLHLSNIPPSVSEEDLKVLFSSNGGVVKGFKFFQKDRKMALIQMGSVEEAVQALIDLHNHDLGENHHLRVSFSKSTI
A further assay has as its target PRRC2A (human) (UniProt P48634). Described as above.
Another assay deals with RPL10 (human) (UniProt P27635). The description is as above.
The target of another assay is RPL4 (human) (UniProt P36578). Described as above.
In a further assay the target is RPS28 (human) (UniProt P62857). The assay is described as above.
A further assay deals with UBAP2L (human) (UniProt Q14157). The assay is described as above.
UBAP2L (human), sequence (Q14157 whole entry): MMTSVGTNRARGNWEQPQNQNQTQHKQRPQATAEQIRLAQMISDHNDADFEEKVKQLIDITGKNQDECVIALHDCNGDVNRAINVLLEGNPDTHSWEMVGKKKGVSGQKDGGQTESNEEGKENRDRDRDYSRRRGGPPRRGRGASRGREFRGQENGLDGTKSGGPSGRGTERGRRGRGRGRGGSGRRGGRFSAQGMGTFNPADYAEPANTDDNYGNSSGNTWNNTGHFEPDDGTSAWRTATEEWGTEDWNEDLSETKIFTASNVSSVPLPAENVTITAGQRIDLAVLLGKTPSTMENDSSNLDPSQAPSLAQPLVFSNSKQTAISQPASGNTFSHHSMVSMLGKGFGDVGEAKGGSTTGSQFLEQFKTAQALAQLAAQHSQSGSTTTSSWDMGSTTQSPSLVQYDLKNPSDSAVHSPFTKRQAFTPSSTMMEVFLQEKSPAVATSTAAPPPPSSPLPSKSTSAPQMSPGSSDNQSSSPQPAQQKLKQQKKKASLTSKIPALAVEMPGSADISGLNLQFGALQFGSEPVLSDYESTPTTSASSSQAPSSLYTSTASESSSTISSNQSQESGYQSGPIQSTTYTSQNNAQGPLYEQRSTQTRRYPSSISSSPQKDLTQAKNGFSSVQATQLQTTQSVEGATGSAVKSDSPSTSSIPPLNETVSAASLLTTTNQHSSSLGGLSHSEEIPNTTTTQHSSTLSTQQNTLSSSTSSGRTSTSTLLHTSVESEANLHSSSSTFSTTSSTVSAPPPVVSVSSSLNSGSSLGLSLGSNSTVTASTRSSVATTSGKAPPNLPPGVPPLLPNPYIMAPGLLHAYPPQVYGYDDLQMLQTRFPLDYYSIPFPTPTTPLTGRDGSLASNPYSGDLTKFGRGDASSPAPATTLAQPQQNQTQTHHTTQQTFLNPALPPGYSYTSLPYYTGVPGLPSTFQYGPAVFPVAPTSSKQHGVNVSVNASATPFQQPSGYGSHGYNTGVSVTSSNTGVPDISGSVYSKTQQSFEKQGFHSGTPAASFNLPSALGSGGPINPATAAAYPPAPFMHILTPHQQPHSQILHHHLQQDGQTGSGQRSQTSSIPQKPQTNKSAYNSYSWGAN

AIFM1 (human), sequence (O95831 55-613 limits assumed): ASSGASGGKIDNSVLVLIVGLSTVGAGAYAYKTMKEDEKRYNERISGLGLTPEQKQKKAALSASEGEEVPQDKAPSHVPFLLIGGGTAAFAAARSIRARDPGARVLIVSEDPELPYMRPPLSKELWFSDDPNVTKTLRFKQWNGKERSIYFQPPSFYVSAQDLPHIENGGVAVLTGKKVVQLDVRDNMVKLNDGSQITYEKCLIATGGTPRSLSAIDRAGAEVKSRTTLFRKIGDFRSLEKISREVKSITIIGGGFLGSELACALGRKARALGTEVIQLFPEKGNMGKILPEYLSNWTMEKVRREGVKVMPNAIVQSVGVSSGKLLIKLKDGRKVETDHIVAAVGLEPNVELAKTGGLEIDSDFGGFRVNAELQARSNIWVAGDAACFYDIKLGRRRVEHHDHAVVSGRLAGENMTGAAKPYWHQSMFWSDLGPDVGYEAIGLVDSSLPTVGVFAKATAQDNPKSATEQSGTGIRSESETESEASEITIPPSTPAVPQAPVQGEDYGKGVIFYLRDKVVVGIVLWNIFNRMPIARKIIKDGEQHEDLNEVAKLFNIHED
ACSL3 (human), sequence (O95573 whole entry): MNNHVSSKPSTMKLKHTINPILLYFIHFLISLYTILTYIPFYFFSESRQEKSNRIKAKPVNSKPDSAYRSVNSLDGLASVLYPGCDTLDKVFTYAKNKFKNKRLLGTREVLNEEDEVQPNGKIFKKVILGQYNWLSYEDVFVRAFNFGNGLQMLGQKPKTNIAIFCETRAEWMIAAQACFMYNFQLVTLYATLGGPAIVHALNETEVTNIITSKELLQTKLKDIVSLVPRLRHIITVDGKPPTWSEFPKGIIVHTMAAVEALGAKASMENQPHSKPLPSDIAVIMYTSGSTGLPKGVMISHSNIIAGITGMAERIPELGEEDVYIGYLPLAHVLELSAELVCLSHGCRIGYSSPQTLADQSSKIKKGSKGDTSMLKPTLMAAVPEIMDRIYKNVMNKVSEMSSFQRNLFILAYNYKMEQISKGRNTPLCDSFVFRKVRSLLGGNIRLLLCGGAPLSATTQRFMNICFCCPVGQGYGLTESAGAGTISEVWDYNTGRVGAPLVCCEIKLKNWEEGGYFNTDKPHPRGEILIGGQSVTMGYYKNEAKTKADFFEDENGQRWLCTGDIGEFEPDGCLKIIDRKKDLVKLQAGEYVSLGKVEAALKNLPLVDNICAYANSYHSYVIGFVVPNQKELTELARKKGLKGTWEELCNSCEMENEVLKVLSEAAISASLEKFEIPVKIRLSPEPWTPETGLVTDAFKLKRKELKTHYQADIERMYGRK
HSPA8 (human), sequence (P11142 2-646 limits assumed): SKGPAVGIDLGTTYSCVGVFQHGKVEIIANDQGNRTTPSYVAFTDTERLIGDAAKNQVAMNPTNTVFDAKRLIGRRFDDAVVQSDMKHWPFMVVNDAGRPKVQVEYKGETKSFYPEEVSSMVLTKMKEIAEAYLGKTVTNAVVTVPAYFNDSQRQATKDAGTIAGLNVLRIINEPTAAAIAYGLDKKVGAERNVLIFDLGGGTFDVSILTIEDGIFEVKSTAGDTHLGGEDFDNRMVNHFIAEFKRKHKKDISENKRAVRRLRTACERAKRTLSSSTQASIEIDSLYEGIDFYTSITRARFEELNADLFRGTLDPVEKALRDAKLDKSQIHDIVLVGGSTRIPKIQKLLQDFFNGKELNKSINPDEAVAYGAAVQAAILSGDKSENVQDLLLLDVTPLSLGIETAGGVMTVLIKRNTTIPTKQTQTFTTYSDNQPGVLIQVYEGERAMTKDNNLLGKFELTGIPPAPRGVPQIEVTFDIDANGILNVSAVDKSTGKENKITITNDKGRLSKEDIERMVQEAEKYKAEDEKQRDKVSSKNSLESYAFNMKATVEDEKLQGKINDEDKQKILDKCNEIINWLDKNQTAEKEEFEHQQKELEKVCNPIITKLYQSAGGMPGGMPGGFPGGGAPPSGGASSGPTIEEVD
PSMB6 (human), sequence (P28072 35-239 limits assumed): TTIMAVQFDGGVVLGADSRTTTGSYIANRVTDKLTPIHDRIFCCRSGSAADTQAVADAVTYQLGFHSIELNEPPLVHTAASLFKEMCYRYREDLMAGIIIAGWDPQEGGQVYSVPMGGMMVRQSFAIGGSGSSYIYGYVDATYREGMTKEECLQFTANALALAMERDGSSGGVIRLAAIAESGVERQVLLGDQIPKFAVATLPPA

Take “N-terminal FLAG tagged B3GNT2 (from UniProt Q9NY97 1-397) (enzyme)”: the co-IP mass spectrometry count amounted to 5 in the assay with ACSL3 (human); 5 with AIFM1 (human); 3 with EEF2 (human); 2 in the assay with ERP29 (human); 4 in the assay with FBXO6 (human); 0 with LARP4 (human). In addition, the co-IP mass spectrometry count in the assay with PSMB6 (human) worked out at 5; with RRBP1 (human) it was 2; in the assay with TUBA1C (human) it was 76.
“IgG control (Millipore Sigma 12-371) (antibody)”: the co-IP mass spectrometry count in the assay with ATXN2 (human) came out at 3; with C1orf68 (human), 0; with DDX5 (human), 18; in the assay with DNAJC3 (human), 0; with EIF5B (human), 0; with FAU (human), 6. Moreover, the co-IP mass spectrometry count was 8 with FUBP3 (human); 29 in the assay with G3BP1 (human); 4 with HNRNPA2B1 (human); 16 with HSPA8 (human); 0 in the assay with HUWE1 (human); 21 with KRT4 (human). The co-IP mass spectrometry count is 316 with KRT6B (human); 11 in the assay with LMNA (human); 3 in the assay with NUFIP2 (human); 0 with PARP1 (human); 7 with PRBP1 (human); 3 with PRRC2A (human). The co-IP mass spectrometry count in the assay with RPL10 (human) is 3; with RPL4 (human), 11; with RPS28 (human), 0; with UBAP2L (human) it was 20.

Values taken from US20240261333A1, “NOVEL TARGETS FOR ENHANCING ANTI-TUMOR IMMUNITY” (THE BROAD INSTITUTE, INC., priority 2021, published 2024).
